Measurements from US9340588B2, “Peptide secreted by Lactobacillus plantarum with immunomodulating function” (Imperial Innovations Limited, priority 2011, dated 2016).

Experiments:
[1] = test system: enriched dendritic cells from human blood (LDCs); assay: Surface marker expression on blood-enriched dendritic cells (LDCs), flow cytometry; assay type: cell-based; conditions: for activation molecule CD83 on DCs / co-stimulating molecule CD40 on DCs / induction of MHC type II molecules (HLA-DR) on DCs: ST peptide 0.1-10 μg/mL or LPS 100 ng/mL, FIG. 5 panel B
Description: (§1) The dendritic cells were obtained from healthy patients who had neither autoimmune diseases, nor inflammatory diseases nor allergies nor malignant tumors. These subjects had given their written consent for their blood to be used for scientific purposes. The peripheral blood mononuclear cells (PBMCs) were isolated by differential centrifugation in Ficoll-Paque Plus (Amersham Biosciences, Chalfont St. Giles, UK). The cellular fraction LDC (low-density cells) was obtained by overnight centrifugation in NycoPrepe™ solution. The cells present in this LDC fraction were HLA-DR positive in 98-100% of cases, with morphological characteristics typical of the DCs (Ng, et al. (2009). A novel population of human CD56+ human leukocyte antigen D-related (HLA-DR+) colonic lamina propria cells is associated with inflammation in ulcerative colitis. Clin. Exp. Immuno1.158, 205-218).
(§2) Half a million LDCs per milliliter were cultured in complete medium (Dutch modified RPMI 1640 (Sigma-Aldrich, Dorset, UK) containing 100 U/mL penicillin/streptomycin, 2 mM L-glutamine, […] gentamicin (Sigma-Aldrich) and fetal bovine serum at 10% (v/v) (TCS cellworks, Buckingham, UK)). These cultures were carried out in the presence of the ST peptide identified as SEQ ID NO: 1 purified at concentrations of 10 μg/mL, 1 μg/mL and 0.1 μg/mL, and of LPS (100 ng/mL) (Sigma-Aldrich, St. Louis, USA) as positive control. The results were compared with parallel cultures without ST peptide identified as SEQ ID NO: 1 nor added LPS, acting as negative controls.
For the various experiments, labeling of the cells with the various antibodies (Table 1) was carried out in PBS supplemented with 1 mM EDTA and sodium azide at 0.02% (w/v) (FACS buffer). Labeling was carried out for 20 minutes in ice, in the dark. The cells were then washed with FACS buffer and were fixed with paraformaldehyde at 1% (v/v) in saline solution, and stored at 4° C. until acquisition of data in the flow cytometer. The negative controls used were isotype-matched antibodies without specificity, labeled with the same fluorochrome, which were obtained from the same company (isotype controls).
(§3) The flow cytometry data were obtained in a FACSCalibur cytometer (BD Biosciences), and the data were analyzed with the WinList 5.0 software (Verity, Me., US). The proportion of samples positive for a particular marker was determined relative to isotype controls. For quantification by histograms, an analysis was performed with the WinList software, in which the histogram of isotype staining was subtracted from the histogram of specific staining using normalized superenhanced Dmax (SED) substraction (Bagwell, C. B. (2005). Hyperlog—a flexible log-like transform for negative, zero, and positive valued data. Cytometry. 64, 34-42).

[2] = test system: enriched dendritic cells from human blood (LDCs); assay: Intracellular cytokine production in blood-enriched dendritic cells (LDCs), monensin 4 h, flow cytometry; assay type: cell-based; conditions: ST peptide 0.1-10 μg/mL, 4 h monensin window, FIG. 6
Description: as §1
as §2, with “The results were compared with parallel cultures without ST peptide identified as SEQ ID NO: 1 nor added LPS, acting as negative controls.” left out
as §3
The DCs were cultured for 4 hours in the presence/absence of monensin. […] This protocol has been extensively validated by our colleagues (Hart et al., (2005) Characteristics of intestinal dendritic cells in inflammatory bowel diseases. Gastroenterology. 129, 50-65) and makes it possible to quantify changes in the natural production of cytokines by the DCs in the absence of external stimuli such as PMA and/or ionomycin. Using this approach, the intracellular content of each cytokine is not determined. Instead, the changes induced in the production of cytokines in a temporal window of 4 hours (incubation time with monensin) are determined independently of the initial content of cytokines.

[3] = test system: dendritic cells from colon mucosa biopsies (intestinal DC); assay: Intracellular cytokine production in dendritic cells from colon mucosa biopsies; assay type: cell-based, human
Procedure: The DCs were cultured for 4 hours in the presence/absence of monensin. Then they were stained for the surface markers as described above. Next they were fixed with LeucopermA, and permeabilized with LeucopermB before adding the intracellular staining antibodies. After incubation, the DCs were washed in FACS buffer, were fixed and were acquired as described above. The analysis was performed by the SED substraction detailed above, where the histogram of each cytokine of the DCs that had not been incubated with monensin were subtracted from the histogram of each cytokine of the DCs that had been incubated in the […] of monensin. This protocol has been extensively validated by our colleagues (Hart et al., (2005) Characteristics of intestinal dendritic cells in inflammatory bowel diseases. Gastroenterology. 129, 50-65) and makes it possible to quantify changes in the natural production of cytokines by the DCs in the absence of external stimuli such as PMA and/or ionomycin. Using this approach, the intracellular content of each cytokine is not determined. Instead, the changes induced in the production of cytokines in a temporal window of 4 hours (incubation time with monensin) are determined independently of the initial content of cytokines.
Biopsies from the colon were obtained from three healthy patients, who had given their written consent to participate in this study (one woman and two men, age range 30-58 years). These patients had normal intestines, both macroscopically and histologically, and had been examined after reporting changes in intestinal transit or rectal bleeding. Once obtained, the biopsies were collected in complete medium cooled to 4° C. and were processed before the first hour counting from when they were obtained. The biopsies were incubated in Hanks's balanced salt solution (HBSS) (Gibco BRL, Paisley, Scotland, UK) containing 1 mM dithiothreitol (DTT) (Sigma-Aldrich) for 20 minutes. Next, they were incubated in a 1 mM solution of ethylenediaminetetraacetic acid (EDTA) in order to remove both the epithelial cells and the layer of mucus and its associated bacteria. […] The cellular suspensions of mononuclear cells of the lamina propria (200000 cells/mL) were incubated for 4 hours in the presence of the ST peptide identified as SEQ ID NO: 1 purified (10 μg/mL) and in the presence/absence, in its turn, of monensin, with their corresponding negative controls. The DCs of the lamina propria were identified by flow cytometry from the presence of the markers HLA-DR+ and CD3-CD14-CD16-CD19-CD34- (Hart et al. (2005) Characteristics of intestinal dendritic cells in inflammatory bowel diseases. Gastroenterology, 129, 50-65).
The remaining procedures followed in this example were the same as in section 1 of example 1.

[4] = test system: T lymphocytes stimulated by enriched dendritic cells from blood (LDC); assay: T lymphocytes stimulated with blood LDCs conditioned with ST peptide: homing markers and cytokines; assay type: cell-based, human
Procedure: (§4) The T lymphocytes were obtained from peripheral blood mononuclear cells (PBMCs). The PBMCs, obtained from freshly drawn blood as described in example 1, were resuspended in MiniMACs buffer (PBS supplemented with bovine serum albumin 0.5% (w/v) and EDTA 2 mM). This suspension was enriched with T cells by removing the CD14 positive, CD19 positive and HLA-DR positive cells with immuno-magnetized beads (Miltenyi Biotech, Bisley, UK) following the manufacturer's instructions. A percentage of T cells of 94.91%±1.06 (mean±standard deviation) was obtained as the mean value of all the extractions/enrichments.
(§5) The T cells were labeled with 5-carboxyfluorescein diacetate succinimidyl ester (CFSE, Invitrogen Ltd, UK) according to the manufacturer's instructions. The T cells thus labeled (4×10^5 cells per well) were incubated for 5 days with DCs at 0, 1, 2 or 3% in microtiter plates with U-shaped bottom. The proliferating T cells were identified and quantified by flow cytometry as those that contained a small amount of CFSE (CFSE^low) (FIG. 8).
The remaining flow cytometry protocols were carried out as described in section 1 of example 1.

[5] = test system: T lymphocytes stimulated by enriched dendritic cells from colon biopsies (gut DC); assay: T lymphocytes stimulated with intestinal mucosa DCs conditioned with ST peptide: homing markers and cytokines; assay type: cell-based, human; conditions: T cells stimulated with gut DCs pulsed with ST peptide, vs basal gut DC
Procedure: as §4, §5
This example is the same as the preceding example, except in this case DCs isolated from intestinal mucosa were used.

[6] = ST peptide 0.1, 1 or 10 μg/mL, FIG. 5
[7] = colon biopsies of healthy patients, ST peptide 10 μg/mL, 4 h, FIG. 7
[8] = single donor with abnormal IL-12 production, FIG. 14
[9] = T cells co-incubated with LDCs pre-incubated with ST peptide, FIGS. 10 and 11
[10] = T cells incubated 5 days with LDCs pre-incubated with ST peptide, FIG. 9

## lipopolysaccharide [LPS, reference compound]
[1]
  activation molecule CD83 on DCs: did induce overexpression
  co-stimulating molecule CD40 on DCs: did induce overexpression
  induction of MHC type II molecules (HLA-DR) on DCs: did induce overexpression

B1: ST peptide: Peptide of 73 amino acids rich in serine and threonine, derived from protein D1 secreted by Lactobacillus plantarum; SEQ ID NO: 1 (protein, listed as Lactobacillus plantarum)
chain: GEVDGDSTTTTSTSTQTTQQTTTTQSSAQTSQTQAQPSQASQTQSSQTQTSKPAAQTTQTSSSTSNYHHHHHH
modifications: (1)..(73) ST peptide sequence
[1]; [6]
  marker of migration to intestinal mucosa integrin β7 on DCs: did not produce changes
  marker of migration to skin CLA on DCs: did not produce changes
[1]
  activation molecule CD83 on DCs: Nor did the peptide produce changes
  co-stimulating molecule CD40 on DCs: Nor did the peptide produce changes
  induction of MHC type II molecules (HLA-DR) on DCs: Nor did the peptide produce changes
[2]
  production of intracellular TGFβ in LDCs: did not affect
  synthesis of IL-6 in LDCs: reduction in the synthesis
  synthesis of IL-10 in LDCs: increase in the synthesis
  synthesis of IL-12 in LDCs: reduction in the synthesis
[3]; [7]
  production of IL-10 in intestinal DCs: increase in the production
  production of IL-12 in intestinal DCs: absence of any increase in the production
[3]; [8]
  production of IL-10 in colon mucosa DCs of a donor with unusually high IL-12: increasing the production
  production of IL-12 in colon mucosa DCs of a donor with unusually high IL-12: completely cancelled the production
[4]; [9]
  production of IFNγ in T cells: decreased
  production of IL-17 in T cells: decreased
[4]; [10]
  CLA (marker of migration to skin) in T lymphocytes: increased considerably
  integrin β7 (marker of migration to intestinal mucosa) in T lymphocytes: decrease
[5]; FIG. 12
  production of IL-10 in T cells: even greater increase in the production
  production of TGFβ in T cells: even greater increase
[5]; FIG. 13
  lymphocytes expressing the marker of migration to skin (CLA): greater number of lymphocytes
